Measured values published in US20030129724A1 (Harvard, published 2003).

B1: Recombinant FLAG-epitope tagged HDAC6 (enzyme, not shown: small tags and cut ends)
chain: MTSTGQDSTTTRQRRSRQNPQSPPQDSSVTSKRNIKKGAVPRSIPNLAEVKKKGKMKKLGQAMEEDLIVGLQGMDLNLEAEALAGTGLVLDEQLNEFHCLWDDSFPEGPERLHAIKEQLIQEGLLDRCVSFQARFAEKEELMLVHSLEYIDLMETTQYMNEGELRVLADTYDSVYLHPNSYSCACLASGSVLRLVDAVLGAEIRNGMAIIRPPGHHAQHSLMDGYCMFNHVAVAARYAQQKHRIRRVLIVDWDVHHGQGTQFTFDQDPSVLYFSIHRYEQGRFWPHLKASNWSTTGFGQGQGYTINVPWNQVGMRDADYIAAFLHVLLPVALEFQPQLVLVAAGFDALQGDPKGEMAATPAGFAQLTHLLMGLAGGKLILSLEGGYNLRALAEGVSASLHTLLGDPCPMLESPGAPCRSAQASVSCALEALEPFWEVLVRSTETVERDNMEEDNVEESEEEGPWEPPVLPILTWPVLQSRTGLVYDQNMMNHCNLWDSHHPEVPQRILRIMCRLEELGLAGRCLTLTPRPATEAELLTCHSAEYVGHLRATEKMKTRELHRESSNFDSIYICPSTFACAQLATGAACRLVEAVLSGEVLNGAAVVRPPGHHAEQDAACGFCFFNSVAVAARHAQTISGHALRILIVDWDVHHGNGTQHMFEDDPSVLYVSLHRYDHGTFFPMGDEGASSQIGRAAGTGFTVNVAWNGPRMGDADYLAAWHRLVLPIAYEFNPELVLVSAGFDAARGDPLGGCQVSPEGYAHLTHLLMGLASGRIILILEGGYNLTSISESMAACTRSLLGDPPPLLTLPRPPLSGALASITETIQVHRRYWRSLRVMKVEDREGPSSSKLVTKKAPQPAKPRLAERMTTREKKVLEAGMGKVTSASFGEESTPGQTNSETAVVALTQDQPSEAATGGATLAQTISEAAIGGAMLGQTTSEEAVGGATPDQTTSEETVGGAILDQTTSEDAVGGATLGQTTSEEAVGGATLAQTISEAAMEGATLDQTTSEEAPGGTELIQTPLASSTDHQTPPTSPVQGTTPQISPSTLIGSLRTLELGSESQGASESQAPGEENLLGEAAGGQDMADSMLMQGSRGLTDQAIFYAVTPLPWCPHLVAVCPIPAAGLDVTQPCGDCGTIQENWVCLSCYQVYCGRYINGHMLQHHGNSGHPLVLSYIDLSAWCYYCQAYVHHQALLDVKNIAHQNKFGEDMPHPH
notes: Full length ORF with C-terminal FLAG tag in pBJ5, expressed in TAg Jurkat cells; also called HDAC6-FLAG; HD6

Key:
HDAC4-EGFP (human) = HDAC4-EGFP (human) (UniProt P56524); test: cell-based or functional assay
CHD4 = molecular target: T1, CHD4 (UniProt Q14839 1-1912, limits assumed); test: anti-FLAG co-immunoprecipitation from TAg Jurkat cells, Western blot
T1 construct: Endogenous protein detected by Western blot in immunoprecipitates; also called CHD chromodomain protein
T1 sequence (Q14839 whole entry): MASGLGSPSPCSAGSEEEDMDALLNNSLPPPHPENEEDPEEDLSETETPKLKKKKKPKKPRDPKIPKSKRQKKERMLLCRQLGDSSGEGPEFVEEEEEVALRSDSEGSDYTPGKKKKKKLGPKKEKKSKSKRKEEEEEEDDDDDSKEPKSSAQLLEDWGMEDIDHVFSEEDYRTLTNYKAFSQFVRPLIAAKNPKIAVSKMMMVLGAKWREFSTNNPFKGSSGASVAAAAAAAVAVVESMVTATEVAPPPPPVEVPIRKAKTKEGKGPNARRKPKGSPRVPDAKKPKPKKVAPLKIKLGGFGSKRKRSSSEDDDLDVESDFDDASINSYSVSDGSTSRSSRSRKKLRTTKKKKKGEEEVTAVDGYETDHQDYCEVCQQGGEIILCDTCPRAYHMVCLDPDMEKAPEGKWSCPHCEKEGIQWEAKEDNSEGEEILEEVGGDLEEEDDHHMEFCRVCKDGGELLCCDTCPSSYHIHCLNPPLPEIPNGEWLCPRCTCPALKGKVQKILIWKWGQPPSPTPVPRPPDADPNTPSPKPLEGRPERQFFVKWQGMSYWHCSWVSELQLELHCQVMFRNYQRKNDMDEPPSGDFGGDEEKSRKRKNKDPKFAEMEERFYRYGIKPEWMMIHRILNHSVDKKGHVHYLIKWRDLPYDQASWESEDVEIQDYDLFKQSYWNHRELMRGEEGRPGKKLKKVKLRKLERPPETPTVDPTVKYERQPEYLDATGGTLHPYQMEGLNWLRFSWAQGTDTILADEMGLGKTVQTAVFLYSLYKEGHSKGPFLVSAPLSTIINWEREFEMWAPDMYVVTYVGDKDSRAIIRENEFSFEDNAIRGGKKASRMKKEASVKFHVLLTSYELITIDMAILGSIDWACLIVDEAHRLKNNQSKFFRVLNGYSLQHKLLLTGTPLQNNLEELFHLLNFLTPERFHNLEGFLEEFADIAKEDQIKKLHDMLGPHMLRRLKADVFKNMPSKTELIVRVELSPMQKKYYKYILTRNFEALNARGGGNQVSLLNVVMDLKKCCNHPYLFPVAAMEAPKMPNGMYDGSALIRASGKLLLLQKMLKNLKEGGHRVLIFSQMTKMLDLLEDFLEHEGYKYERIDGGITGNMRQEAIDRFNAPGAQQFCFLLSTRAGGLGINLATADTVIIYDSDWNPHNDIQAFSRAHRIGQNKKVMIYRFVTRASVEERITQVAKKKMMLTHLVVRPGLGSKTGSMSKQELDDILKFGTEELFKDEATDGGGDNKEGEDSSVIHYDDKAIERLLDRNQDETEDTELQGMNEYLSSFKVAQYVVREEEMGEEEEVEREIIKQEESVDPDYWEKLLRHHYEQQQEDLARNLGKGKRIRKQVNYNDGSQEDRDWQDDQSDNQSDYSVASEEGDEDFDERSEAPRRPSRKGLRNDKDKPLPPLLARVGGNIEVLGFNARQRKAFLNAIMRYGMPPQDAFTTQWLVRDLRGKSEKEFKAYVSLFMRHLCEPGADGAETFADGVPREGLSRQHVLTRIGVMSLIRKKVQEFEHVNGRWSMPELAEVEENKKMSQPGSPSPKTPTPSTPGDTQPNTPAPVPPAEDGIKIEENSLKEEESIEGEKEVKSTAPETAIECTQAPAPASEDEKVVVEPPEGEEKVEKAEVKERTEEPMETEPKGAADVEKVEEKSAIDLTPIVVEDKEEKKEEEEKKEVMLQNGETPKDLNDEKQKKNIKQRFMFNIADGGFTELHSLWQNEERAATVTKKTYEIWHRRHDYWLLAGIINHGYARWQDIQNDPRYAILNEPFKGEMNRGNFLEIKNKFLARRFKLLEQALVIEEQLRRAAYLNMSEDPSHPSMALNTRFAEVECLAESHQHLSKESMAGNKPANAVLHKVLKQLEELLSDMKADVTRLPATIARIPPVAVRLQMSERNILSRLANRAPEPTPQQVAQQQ

mSin3A = molecular target: T2, mSin3A (UniProt Q96ST3 1-1273); test: as above
T2 construct: Endogenous protein detected by Western blot in immunoprecipitates; also called co-repressor mSin3A
T2 sequence (looked up): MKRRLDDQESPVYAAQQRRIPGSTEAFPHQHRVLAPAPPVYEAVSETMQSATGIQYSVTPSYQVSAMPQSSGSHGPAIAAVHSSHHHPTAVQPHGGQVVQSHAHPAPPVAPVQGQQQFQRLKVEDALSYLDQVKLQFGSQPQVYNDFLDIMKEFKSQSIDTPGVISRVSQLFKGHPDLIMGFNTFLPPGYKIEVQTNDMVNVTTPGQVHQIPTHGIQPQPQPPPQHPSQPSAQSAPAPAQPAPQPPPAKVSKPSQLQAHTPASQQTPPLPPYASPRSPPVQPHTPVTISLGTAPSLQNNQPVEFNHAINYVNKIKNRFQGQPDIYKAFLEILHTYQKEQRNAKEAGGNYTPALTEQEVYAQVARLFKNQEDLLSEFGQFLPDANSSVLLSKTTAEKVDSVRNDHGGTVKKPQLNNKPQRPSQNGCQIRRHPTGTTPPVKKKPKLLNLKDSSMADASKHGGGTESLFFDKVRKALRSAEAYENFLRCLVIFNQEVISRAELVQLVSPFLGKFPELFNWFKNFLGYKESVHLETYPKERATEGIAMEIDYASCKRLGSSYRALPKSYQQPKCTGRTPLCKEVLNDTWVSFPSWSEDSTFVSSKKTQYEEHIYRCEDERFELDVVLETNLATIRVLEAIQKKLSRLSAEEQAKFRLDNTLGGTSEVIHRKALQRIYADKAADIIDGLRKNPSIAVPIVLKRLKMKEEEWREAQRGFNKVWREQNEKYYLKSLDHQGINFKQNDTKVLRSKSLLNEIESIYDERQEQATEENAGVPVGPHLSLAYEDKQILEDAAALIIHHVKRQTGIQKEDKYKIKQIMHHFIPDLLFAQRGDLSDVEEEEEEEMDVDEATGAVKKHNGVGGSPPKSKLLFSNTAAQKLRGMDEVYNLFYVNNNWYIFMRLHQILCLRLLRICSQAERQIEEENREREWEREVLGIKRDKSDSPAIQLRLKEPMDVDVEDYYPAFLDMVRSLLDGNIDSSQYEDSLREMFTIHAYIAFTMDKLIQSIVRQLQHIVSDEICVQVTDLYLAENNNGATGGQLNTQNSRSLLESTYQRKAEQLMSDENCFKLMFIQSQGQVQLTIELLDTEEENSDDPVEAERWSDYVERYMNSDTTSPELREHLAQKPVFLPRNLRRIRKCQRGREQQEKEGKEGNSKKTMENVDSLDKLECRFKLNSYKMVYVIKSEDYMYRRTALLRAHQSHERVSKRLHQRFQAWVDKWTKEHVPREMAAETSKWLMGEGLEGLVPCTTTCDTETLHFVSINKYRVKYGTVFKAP

[1] = molecular target: B1; test: as above
[2] = molecular target: T3, calyculin A-treated (hyperphosphorylated) HDAC4 (human, UniProt P56524 1-1084, hyperphosphorylated after calyculin A treatment of the cells; sites not determined); test: immunopurified HDAC4-FLAG from calyculin A-treated cells incubated 1 hour with untreated TAg Jurkat lysate, Western blot
T3 construct: HDAC4-FLAG immunopurified from TAg Jurkat cells treated 1.5 hours with 20 nM calyculin A; also called HDAC4-FLAG from calyculin A-treated cells
Protocol: These samples were analyzed for 14-3-3 and HDAC3 binding by Western blot analysis.

Sequence of 14-3-3 ε, P62258 (P62258 whole entry, looked up): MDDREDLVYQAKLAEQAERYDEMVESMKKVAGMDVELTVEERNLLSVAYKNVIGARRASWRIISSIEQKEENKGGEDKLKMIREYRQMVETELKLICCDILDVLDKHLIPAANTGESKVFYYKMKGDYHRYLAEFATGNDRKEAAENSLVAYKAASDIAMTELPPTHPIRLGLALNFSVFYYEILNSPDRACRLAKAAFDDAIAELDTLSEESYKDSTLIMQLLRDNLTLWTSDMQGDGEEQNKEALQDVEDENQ
Sequence of 14-3-3 β, P31946 (P31946 whole entry, looked up): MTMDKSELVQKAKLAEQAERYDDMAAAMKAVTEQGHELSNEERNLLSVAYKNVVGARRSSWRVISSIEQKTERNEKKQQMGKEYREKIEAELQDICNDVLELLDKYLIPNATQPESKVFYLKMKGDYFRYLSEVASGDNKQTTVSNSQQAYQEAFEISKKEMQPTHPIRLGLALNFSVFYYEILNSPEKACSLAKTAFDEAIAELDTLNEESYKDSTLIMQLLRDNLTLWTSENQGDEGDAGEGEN

myc-tagged 14-3-3 β (from UniProt P31946 1-246)
cytoplasmic localization of HDAC4 (percent of U2OS cells), HDAC4-EGFP with simultaneous overexpression of 14-3-3 (% of the cells) (HDAC4-EGFP (human)): 97 | cytoplasmic localization of HDAC4 (percent of U2OS cells), control: HDAC4-EGFP alone without overexpressed 14-3-3 (% of the cells) (HDAC4-EGFP (human)): 67

B1
binding result (CHD4): no binding | binding result (mSin3A): no binding

B2: HDAC3 (enzyme, human, UniProt O15379 1-428, looked up)
chain: MAKTVAYFYDPDVGNFHYGAGHPMKPHRLALTHSLVLHYGLYKKMIVFKPYQASQHDMCRFHSEDYIDFLQRVSPTNMQGFTKSLNAFNVGDDCPVFPGLFEFCSRYTGASLQGATQLNNKICDIAINWAGGLHHAKKFEASGFCYVNDIVIGILELLKYHPRVLYIDIDIHHGDGVQEAFYLTDRVMTVSFHKYGNYFFPGTGDMYEVGAESGRYYCLNVPLRDGIDDQSYKHLFQPVINQVVDFYQPTCIVLQCGADSLGCDRLGCFNLSIRGHGECVEYVKSFNIPLLVLGGGGYTVRNVARCWTYETSLLVEEAISEELPYSEYFEYFAPDFTLHPDVSTRIENQNSRQYLDQIRQTIFENLKMLNHAPSVQIHDVPADLLTYDRTDEADAEERGPEENYSRPEAPNEFYDGDHDNDKESDVEI
notes: Endogenous protein co-immunoprecipitated from cell lysate; also used here for HDAC3 of staurosporine-treated cells; also called HDAC3 from untreated cells
binding result [1]: no binding | binding result [2]: binds

B3: HDAC4 S246/466/632A triple mutant (protein)
chain: MSSQSHPDGLSGRDQPVELLNPARVNHMPSTVDVATALPLQVAPSAVPMDLRLDHQFSLPVAEPALREQQLQQELLALKQKQQIQRQILIAEFQRQHEQLSRQHEAQLHEHIKQQQEMLAMKHQQELLEHQRKLERHRQEQELEKQHREQKLQQLKNKEKGKESAVASTEVKMKLQEFVLNKKKALAHRNLNHCISSDPRYWYGKTQHSSLDQSSPPQSGVSTSYNHPVLGMYDAKDDFPLRKTAAEPNLKLRSRLKQKVAERRSSPLLRRKDGPVVTALKKRPLDVTDSACSSAPGSGPSSPNNSSGSVSAENGIAPAVPSIPAETSLAHRLVAREGSAAPLPLYTSPSLPNITLGLPATGPSAGTAGQQDTERLTLPALQQRLSLFPGTHLTPYLSTSPLERDGGAAHSPLLQHMVLLEQPPAQAPLVTGLGALPLHAQSLVGADRVSPSIHKLRQHRPLGRTQAAPLPQNAQALQHLVIQQQHQQFLEKHKQQFQQQQLQMNKIIPKPSEPARQPESHPEETEEELREHQALLDEPYLDRLPGQKEAHAQAGVQVKQEPIESDEEEAEPPREVEPGQRQPSEQELLFRQQALLLEQQRIHQLRNYQASMEAAGIPVSFGGHRPLSRAQASPASATFPVSVQEPPTKPRFTTGLVYDTLMLKHQCTCGSSSSHPEHAGRIQSIWSRLQETGLRGKCECIRGRKATLEELQTVHSEAHTLLYGTNPLNRQKLDSKKLLGSLASVFVRLPCGGVGVDSDTIWNEVHSAGAARLAVGCVVELVFKVATGELKNGFAVVRPPGHHAEESTPMGFCYFNSVAVAAKLLQQRLSVSKILIVDWDVHHGNGTQQAFYSDPSVLYMSLHRYDDGNFFPGSGAPDEVGTGPGVGFNVNMAFTGGLDPPMGDAEYLAAFRTVVMPIASEFAPDVVLVSSGFDAVEGHPTPLGGYNLSARCFGYLTKQLMGLAGGRIVLALEGGHDLTAICDASEACVSALLGNELDPLPEKVLQQRPNANAVRSMEKVMEIHSKYWRCLQRTTSTAGRSLIEAQTCENEEAETVTAMASLSVGVKPAEKRPDEEPMEEEPPL
localization to the cytoplasm (14-3-3 β, P31946): localization of the triple mutant to the cytoplasm is dramatically decreased compared to the wild-type and single mutants | localization to the cytoplasm (14-3-3 ε, P62258): localization of the triple mutant to the cytoplasm is dramatically decreased compared to the wild-type and single mutants
